The text below walks through data of article PMC5429572, “Intrabodies against the Polysialyltransferases ST8SiaII and ST8SiaIV inhibit Polysialylation of NCAM in rhabdomyosarcoma tumor cells” (BMC Biotechnology, 2017).

In assay [1] the target is T1, Flag-HA-tagged ST8SiaIV expressed in HEK293 cells (Cricetulus griseus (assumed), UniProt Q64690, N-glycosylated (several glycoforms, fully glycosylated about 55 kDa)).
T1 construct: polysialyltransferase ST8SiaIV; The empty vector of the control is pcDNA3-FLAG-HA; The CHO line of the functional rows carries Flag-HA-tagged hamster ST8SiaIV; also called ST8SiaVI; polyST; source: HEK293, transiently transfected, in lysate
T1 sequence (Q64690 whole entry): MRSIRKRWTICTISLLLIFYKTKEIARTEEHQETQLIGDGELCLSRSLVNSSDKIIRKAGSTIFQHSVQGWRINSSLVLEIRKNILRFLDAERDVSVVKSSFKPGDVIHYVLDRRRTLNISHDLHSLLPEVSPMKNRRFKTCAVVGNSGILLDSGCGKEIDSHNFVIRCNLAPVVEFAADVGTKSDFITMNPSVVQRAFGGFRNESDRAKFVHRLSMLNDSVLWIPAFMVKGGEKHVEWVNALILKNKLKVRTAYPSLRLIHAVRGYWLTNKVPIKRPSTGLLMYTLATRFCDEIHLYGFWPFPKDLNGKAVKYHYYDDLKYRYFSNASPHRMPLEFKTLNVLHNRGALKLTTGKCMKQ
The assay is described as follows: co-IP; HEK293 cells co-transfected with Flag-HA-tagged polyST and myc-tagged intrabody; lysis in 50 mM Tris-HCl pH 8, 1 mM MgCl2, 1% NP-40; precipitated with anti-myc antibody and Protein G PLUS Agarose; blot with anti-FLAG M5. The settings on record: partners not purified.

For assay [2], the target named is T2, Flag-HA-tagged ST8SiaII expressed in HEK293 cells (Mus musculus (assumed), UniProt O35696, N-glycosylated (several glycoforms, fully glycosylated about 60 kDa)).
T2 construct: polysialyltransferase ST8SiaII; The empty vector of the control is pcDNA3-FLAG-HA; The CHO line of the functional rows carries N-terminally Flag-HA-tagged murine ST8SiaII; also called polyST; source: HEK293, transiently transfected, in lysate
T2 sequence (O35696 whole entry): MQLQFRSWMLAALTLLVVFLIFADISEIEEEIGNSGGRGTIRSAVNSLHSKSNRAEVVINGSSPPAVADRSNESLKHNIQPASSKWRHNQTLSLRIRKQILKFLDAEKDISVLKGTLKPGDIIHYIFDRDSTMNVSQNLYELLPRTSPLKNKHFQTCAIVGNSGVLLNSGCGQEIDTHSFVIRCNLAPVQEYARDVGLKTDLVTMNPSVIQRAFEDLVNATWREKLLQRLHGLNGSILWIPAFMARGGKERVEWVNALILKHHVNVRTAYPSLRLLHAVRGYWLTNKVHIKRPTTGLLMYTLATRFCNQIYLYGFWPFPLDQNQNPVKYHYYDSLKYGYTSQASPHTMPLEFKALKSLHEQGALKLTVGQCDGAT
The description is as above. The settings on record: partners not purified.

B1: αST8SiaIV-IB (ER intrabody against ST8SiaIV, scFv from mAb 3175) (scFv, V domains shown)
VH: EVQLQQSGAELVRSGASVKLSCTTSGFNIKDYYMHWVKQRPEQGLEWIGWIDPENGDTEYAPKFQGKATMTADTSSNTAYLQLSSLTSEDTAVYYCNYRFLAMEYWGQGTSVTVSS
VL: NIMMTQSPSSLAVSAGEKVTMSCKSSQSVLYTSNQKNYLAWYQQKPGQSPKLLIYWASTRESGVPDRFTGSGSGTDFTLTISSVQAEDLAVYYCHQYLSSYTFGGGTKLEIK
notes: synthetic linker, printed as (Gly4 Ser)3; Encoded with an N-terminal ER signal peptide from the vector pCMV/myc/ER; the myc tag is followed by the ER retention signal; also called anti-ST8SiaIV-IB; anti-ST8SiaIV intrabody; source: HEK293, transiently transfected (pCMV/myc/ER), in lysate; not shown: myc, C-terminal, kept
For the molecule B1, in assay [1], the binding result is reported as “binds”.

B2: αST8SiaII-IB (ER intrabody against ST8SiaII, scFv from mAb 3167) (scFv, V domains shown)
VH: QVQLQQPGAELVKAGASVKLSCKASGYTFTNYWMHWVKQRPGQGLEWIGEIDPSESYTNYNQKFKGKATLTVDKSASTAYMQLSSLTSEDSAVYYCTRGDYWGQGTTLTVSS
VL: DVVVTQTPLSLPVSFGDQVSISCRSSQSLANSYGNTYLSWYLHKPGQSPQLLIYGISNRFSGVPDRFSGSGSGTDFTLKISTIKPEDLGIYYCLQGAHQPWTFGGGTKLEIK
notes: synthetic linker, printed as (Gly4 Ser)3; Encoded with an N-terminal ER signal peptide from the vector pCMV/myc/ER; the myc tag is followed by the ER retention signal; also called anti-ST8SiaII-IB; anti-ST8SiaII intrabody; source: HEK293, transiently transfected (pCMV/myc/ER), in lysate; not shown: myc, C-terminal, kept
Consider B2, for which, in assay [2], the binding result is “binds”.
